Assay results published in article PMC2173242 (The Journal of Cell Biology, 2002).

Target: Human recombinant His6-tagged Hsp70 (human, UniProt P0DMV8 1-641)
Experiment: pull-down

Chain of Human recombinant His6-tagged Hsp70 (P0DMV8 whole entry): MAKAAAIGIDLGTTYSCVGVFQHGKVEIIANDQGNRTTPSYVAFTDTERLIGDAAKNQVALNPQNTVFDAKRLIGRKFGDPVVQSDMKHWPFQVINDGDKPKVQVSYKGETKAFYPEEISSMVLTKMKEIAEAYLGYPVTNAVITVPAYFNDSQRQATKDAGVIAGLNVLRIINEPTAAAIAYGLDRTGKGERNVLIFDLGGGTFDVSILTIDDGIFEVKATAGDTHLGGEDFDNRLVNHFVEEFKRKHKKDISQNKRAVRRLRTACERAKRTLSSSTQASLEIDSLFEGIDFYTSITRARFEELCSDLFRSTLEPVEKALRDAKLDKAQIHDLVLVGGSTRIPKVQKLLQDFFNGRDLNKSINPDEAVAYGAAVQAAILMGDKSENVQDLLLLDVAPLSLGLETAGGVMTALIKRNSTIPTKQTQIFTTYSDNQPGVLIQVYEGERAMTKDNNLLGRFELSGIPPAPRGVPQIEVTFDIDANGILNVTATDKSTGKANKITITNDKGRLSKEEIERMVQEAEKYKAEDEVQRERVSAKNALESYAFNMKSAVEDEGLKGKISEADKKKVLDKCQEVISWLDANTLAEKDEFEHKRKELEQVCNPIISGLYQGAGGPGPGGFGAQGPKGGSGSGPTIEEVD

- ka (saturation of the effect of peptide C on binding of Hsp70-ADP to GST-CD40): ~30 µM
Binder: GCEVFGLGWRSYKH [Peptide C]
